# Results from patent publication US20210032312A1 (Janssen / Centocor, published 2021).
# Positions count from the first letter of the chain named.
# B1: P282DR9P1359_B2 (designed binder)
# chain: LPAPKNLVVSRVTEDSARLSWTAPDAAFDSFWIAYTEWPIPYEEAGQEGEAIVLTVPGSERSYDLTGLKPGTEYWVSIYGVKGGPNSQPLSAIFTT
# notes: FN3 domain
# B2: P282FR9P1361_A5 (designed binder)
# chain: LPAPKNLVVSRVTEDSARLSWTAPDAAFDSFGILYYEPVDSGEAITLPVPGSERSYDLTGLKPGTEYWVVITGVKGGAPSTPLGAIFTT
# notes: FN3 domain
# B3: P282DR9P1359_G4 (designed binder)
# chain: LPAPKNLVVSRVTEDSARLSWTAPDAAFDSFEIAYPEWPPPGEAIVLTVPGSERSYDLTGLKPGPEYFVVIQGVKGGDPSFPLSAIFTTGGNHHHHH
# notes: FN3 domain
# B4: P282DR9P1359_C10 (designed binder)
# chain: LPAPKNLVVSRVTEDSARLSWTAPDAAFDSFAIVYPEWPTDGEAIVLTVPGSERSYDLTGLKPGTEYAVFIWGVKGGNQSWPLSAIFTT
# notes: FN3 domain
# B5: P282DR9P1359_E2 (designed binder)
# chain: B4 chain with A32N, V34F, W38I, P39V, D41W, A68W, F70N, W72V, N78D, Q79N
# notes: FN3 domain
# B6: P282DR9P1359_E5 (designed binder)
# chain: B4 chain with V34S, T40V, D41P, A68F, F70I, W72Y, N78L, Q79Y, W81A
# notes: FN3 domain
# B7: P282DR9P1359_E6 (designed binder)
# chain: B4 chain with A32W, V34A, T40V, D41Q, A68F, F70V, W72Q, N78T, Q79P
# notes: FN3 domain
# B8: P282DR9P1359_E8 (designed binder)
# chain: B4 chain with A32Q, V34A, T40V, D41I, A68W, F70I, W72Q, N78Y, Q79T
# notes: FN3 domain
# B9: P282DR9P1359_F6 (designed binder)
# chain: B4 chain with A32D, V34A, D41T, A68F, F70V, N78D, Q79H, W81A
# notes: FN3 domain
# B10: P282DR9P1359_C12 (designed binder)
# chain: B4 chain with A32Y, V34S, T40V, D41P, A68W, F70V, W72Y, N78A, Q79L, W81V
# notes: FN3 domain
# B11: P282DR9P1359_E11 (designed binder)
# chain: B4 chain with A32Y, V34S, T40P, D41V, A68W, F70I, W72Y, N78A, Q79I, W81T
# notes: FN3 domain
# B12: P282DR9P1359_F3 (designed binder)
# chain: B4 chain with A32Y, V34T, T40V, D41Q, A68W, F70I, W72Y, N78T, Q79E, W81E
# notes: FN3 domain
# B13: P282DR9P1359_D12 (designed binder)
# chain: LPAPKNLVVSRVTEDSARLSWTAPDAAFDSFRIAYPETATWGEAIVLTVPGSERSYDLTGLKPGTEYFVIIYGVKGGFESAPLSAIFTT
# notes: FN3 domain
# B14: P282DR9P1359_F7 (designed binder)
# chain: B13 chain with R32A, T38W, A39P, T40P, W41Q, I70V, F78S, E79Y
# notes: FN3 domain
# B15: P282DR9P1359_E3 (designed binder)
# chain: B13 chain with R32A, T38L, A39P, T40L, W41G, F78V, A81F
# notes: FN3 domain
# B16: P282DR9P1359_C11 (designed binder)
# chain: B4 chain with A32K, V34A, W38F, T40P, D41P, A68Y, F70I, W72I, N78T, Q79D
# notes: FN3 domain
# B17: P282DR9P1359_F11 (designed binder)
# chain: B4 chain with A32D, V34F, W38L, T40I, D41H, A68W, F70N, W72T, N78D, Q79F
# notes: FN3 domain
# B18: P282DR9P1359_H5 (designed binder)
# chain: LPAPKNLVVSRVTEDSARLSWTAPDAAFDSFNIAYPEALHPGYGEAIVLTVPGSERSYDLTGLKPGTEYFVVIYGVKGGTNSEPLSAIFTT
# notes: FN3 domain
# B19: P282DR9P1359_A7 (designed binder)
# chain: LPAPKNLVVSRVTEDSARLSWTAPDAAFDSFRIGYPELEKLGYGEAIVLTVPGSERSYDLTGLKPGTEYWVIIWGVKGGENSWPLSAIFTT
# notes: FN3 domain
# B20: P282DR9P1359_G7 (designed binder)
# chain: B19 chain with R32A, G34T, P36I, L38K, K40H, L41I, G42E, Y43D, I72P, E80A
# notes: FN3 domain
# B21: P282DR9P1359_F2 (designed binder)
# chain: LPAPKNLVVSRVTEDSARLSWTAPDAAFDSFNIAYPEALHPGYGEAIVLTVPGSERSYDLTGLKPGTEYWVIIGGVKGGQKSWPLSAIFTTGGHHHDHH
# notes: FN3 domain
# B22: P282CR9P1358_F11 (designed binder)
# chain: LPAPKNLVVSRVTEDSARLSWTAPDAAFDSFLIAYPEWPIFEGEAIVLTVPGSERSYDLTGLKPGTEYFVVIYGVKGGEQSSPLSAIFTT
# notes: FN3 domain
# B23: P282DR9P1359_C5 (designed binder)
# chain: B22 chain with L32W, A34T, I40D, F41P, E42G, Q80I, S81Y
# notes: FN3 domain
# Target: T1, human CD8 alpha (CD8A) on primary human CD8+ T cells (human, UniProt P01732 22-235)
# T1 construct: whole, on cells; also called hCD8A
# Experiment: flow cytometry, human CD8+ T cells, 0.2 uM FN3
# Experimental: (§1) Binding of the 190 ELISA hits to human and cynomologous monkey primary CD8 T cells was assessed by flow cytometry. The FN3 domain molecules were diluted to 2 μM and 0.2 μM in PBS and incubated with human or cynomologous monkey CD8+ T cells in 96-well format. After 1 hour at 4 C, the cells were washed once with PBS and then resuspended with an anti-FN3 domain antibody (PAB25) solution. Following this incubation, the cells were washed twice with PBS and a PE conjugated secondary antibody and a viability dye were added. Finally, cells were washed and resuspended in PBS for flow cytometric analysis using a BD Canto Instrument. Cells were gating on live cells and median fluorescence intensity of the bound Centyrins (PE channel) was calculated using Cytobank software.
# T1 sequence (P01732 22-235): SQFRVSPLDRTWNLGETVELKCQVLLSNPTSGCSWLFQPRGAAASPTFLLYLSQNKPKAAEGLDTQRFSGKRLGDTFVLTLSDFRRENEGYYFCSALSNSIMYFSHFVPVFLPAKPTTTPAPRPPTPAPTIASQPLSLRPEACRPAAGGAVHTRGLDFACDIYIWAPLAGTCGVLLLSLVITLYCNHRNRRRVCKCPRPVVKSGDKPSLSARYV
row,Binder,Human T-cell Binding 0.2 uM (MFI)
1,B1,2730
2,B2,5210
3,B3,2670
4,B4,2880
5,B5,4820
6,B6,1950
7,B7,1260
8,B8,2920
9,B9,3780
10,B10,944
11,B11,7580
12,B12,646
13,B13,542
14,B14,6930
15,B15,349
16,B16,1290
17,B17,6590
18,B18,278
19,B19,8760
20,B20,6130
21,B21,3050
22,B22,749
23,B23,5550

# Target: T2, In house human CD8A-Fc (human, UniProt P01732 22-182, limits assumed)
# T2 construct: Captured on goat anti-human Fc on a ProteOn GLC chip; also called hCD8A-Fc; recombinant human CD8 alpha; not shown: linker with flag (and polyhistidine) tag and Fc of human IgG1
# Experiment: SPR (ProteOn), captured hCD8A-Fc
# Experimental: Purified anti-CD8A FN3 domains were subjected to off-rate analysis using a Proteon surface plasmon resonance instrument in order to pick clones with the slowest off-rates for further characterization.
# The immobilized GAH-Fc IgG densities averaged about 6000 Response Units (Ru) with less than 1% variation among different channels. In house human CD8A-Fc was captured in vertical orientation at 3 different ligand densities, 10, 5, 2.5 μg/ml for 5 minutes at 30 ul/minute flowrate. All FN3 domains were normalized to a 3 μM concentration, and tested for binding in horizontal orientation. All 6 analyte channels were used for FN3 domains to maximize the screening throughput. The dissociation phase was monitored for 15 minutes at a flow rate of 100 μl/min using PBST as running buffer. […] Data analyses were performed using Bio-Rad ProteOn Manager software (version 3.1.0.6). Raw data were double referenced by subtraction of the interspot (empty chip surface, no protein immobilized or captured) signals to correct the non-specific binding of the FN3 domain to the pre-coated GAH-Fc IgG surface, followed by a double correction using empty channel L6 where no hCD8A-Fc was captured. The processed binding data were locally fit to a 1:1 simple Langmuir binding model to extract the koff for each FN3 domain binding to captured hCD8A-Fc.
# T2 sequence (P01732 22-182 limits assumed): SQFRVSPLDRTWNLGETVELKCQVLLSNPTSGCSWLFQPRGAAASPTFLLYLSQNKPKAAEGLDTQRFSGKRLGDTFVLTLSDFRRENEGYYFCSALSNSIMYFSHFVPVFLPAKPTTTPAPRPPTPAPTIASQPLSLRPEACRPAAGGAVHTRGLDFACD
row,Binder,koff [s⁻¹]
1,B1,0.000638
2,B2,0.000192
3,B3,0.000517
4,B4,0.000991
5,B5,0.00206
6,B6,0.00101
7,B7,0.00171
8,B8,0.00119
9,B9,0.000389
10,B10,0.000978
11,B11,0.000265
12,B12,0.00106
13,B13,0.00193
14,B14,0.000365
15,B15,0.00263
16,B16,0.00216
17,B17,0.000554
18,B18,0.00449
19,B19,0.000754
20,B20,0.000114
21,B21,0.000722
22,B22,0.00135
23,B23,0.000174

# Target: T3, cynomolgus monkey CD8A on primary cynomolgus monkey CD8+ T cells (cynomolgus monkey, UniProt P01732 23-235 (human entry))
# T3 construct: also called Cyno CD8alpha
# Experiment: flow cytometry, cyno CD8+ T cells, 2 uM FN3
# Experimental: as §1
# T3 sequence (P01732 other isoform, or with tags, fused parts or gaps limits assumed): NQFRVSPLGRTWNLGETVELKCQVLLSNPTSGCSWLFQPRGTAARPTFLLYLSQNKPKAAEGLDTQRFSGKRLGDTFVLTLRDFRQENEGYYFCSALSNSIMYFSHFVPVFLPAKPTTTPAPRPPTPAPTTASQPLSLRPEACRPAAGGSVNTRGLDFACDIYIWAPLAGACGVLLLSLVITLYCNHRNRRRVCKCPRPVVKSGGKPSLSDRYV
row,Binder,Cyno T-cell Binding 2 uM (MFI)
1,B1,60900
2,B2,63500
3,B3,78600
4,B4,98500
5,B5,77700
6,B6,81200
7,B7,61700
8,B8,81000
9,B9,73200
10,B10,66500
11,B11,104000
12,B12,48900
13,B13,37100
14,B14,96500
15,B15,52400
16,B16,19900
17,B17,86700
18,B18,2250
19,B19,83900
20,B20,69100
21,B21,38200
22,B22,62400
23,B23,95700

# Target: T3, cynomolgus monkey CD8A on primary …
# Experiment: flow cytometry, cyno CD8+ T cells, 0.2 uM FN3
# Experimental: as §1
row,Binder,Cyno T-cell Binding 0.2 uM (MFI)
1,B1,4470
2,B2,8110
3,B3,6010
4,B4,15100
5,B5,10900
6,B6,13600
7,B7,5060
8,B8,16900
9,B9,10700
10,B10,3640
11,B11,33100
12,B12,3080
13,B13,1750
14,B14,26300
15,B15,1620
16,B16,457
17,B17,16100
18,B18,500
19,B19,22800
20,B20,8770
21,B21,4030
22,B22,6580
23,B23,14200

# Target: T1, human CD8 alpha (CD8A) on primary human …
# Experiment: flow cytometry, human CD8+ T cells, 2 uM FN3
# Experimental: as §1
row,Binder,Human T-cell Binding 2 uM (MFI)
1,B1,22200
2,B2,32800
3,B3,26600
4,B4,27800
5,B5,28500
6,B6,24100
7,B7,20500
8,B8,26100
9,B9,19900
10,B10,15100
11,B11,40600
12,B12,6340
13,B13,4540
14,B14,38300
15,B15,4310
16,B16,18200
17,B17,35600
18,B18,919
19,B19,38400
20,B20,37600
21,B21,18400
22,B22,6420
23,B23,31000
